The text below walks through data of PMC4886647, “Transcriptional Regulation of the Outer Membrane Porin Gene ompW Reveals its Physiological Role during the Transition from the Aerobic to the Anaerobic Lifestyle of Escherichia coli”.

In one data set the target is His6-CRP (Escherichia coli, UniProt P0ACJ8 1-210). As to the kind of experiment: EMSA; 0.2 mM cAMP; EMSA: 20 mM Tris-HCl pH 8.0, 50 mM NaCl, 1 mM EDTA, 1 mM beta-mercaptoethanol, 10% glycerol, 37 C 30 min; 6% polyacrylamide gel in ice bath; 0.2 mM cAMP for CRP. The conditions noted are these: protein: recombinant; tags: His6 (pET28a); chain copies: 2; blunt.
In a further data set the target is His6-FNR D154A (Escherichia coli, UniProt P0A9E5 1-250, D154A). As to the kind of experiment: EMSA; two retarded bands; EMSA: 20 mM Tris-HCl pH 8.0, 50 mM NaCl, 1 mM EDTA, 1 mM beta-mercaptoethanol, 10% glycerol, 37 C 30 min; 6% polyacrylamide gel in ice bath; 0.2 mM cAMP for CRP. As to conditions: protein: recombinant; tags: His6 (pET28a); chain copies: 2; blunt.

B1: PompW -120 to -3 native (dsDNA)
DNA 1: CATTAACCAGGATTCTCAATGCAACTTCTAAATTAATCCAGATCAATAAAGGGTGAATTATCATATGTAATGTGATCTATGTAGGATCATTTGTTACTCCAATGTAGGTATATTCGTC
DNA 2: GACGAATATACCTACATTGGAGTAACAAATGATCCTACATAGATCACATTACATATGATAATTCACCCTTTATTGATCTGGATTAATTTAGAAGTTGCATTGAGAATCCTGGTTAATG
As to B1, in the data set with His6-CRP, the binding result is given as “binds”.

B2: PompW -167 to -36 native (dsDNA)
DNA 1: GAGTTAATATTTGCGTAGCGAAAATATTTAAAAATTGATTTAAATCACATTAACCAGGATTCTCAATGCAACTTCTAAATTAATCCAGATCAATAAAGGGTGAATTATCATATGTAATGTGATCTATGTAGG
DNA 2: CCTACATAGATCACATTACATATGATAATTCACCCTTTATTGATCTGGATTAATTTAGAAGTTGCATTGAGAATCCTGGTTAATGTGATTTAAATCAATTTTTAAATATTTTCGCTACGCAAATATTAACTC
In the case of B2, the binding result in the data set with His6-FNR D154A is recorded as “binds”.

B3: PompW m-42.5 (dsDNA)
DNA 1: CATTAACCAGGATTCTCAATGCAACTTCTAAATTAATCCAGATCAATAAAGGGTGAATTATCATATGTAATCTATGTAGGATCATTTGTTACTCCAATGTAGGTATATTCGTC
DNA 2: GACGAATATACCTACATTGGAGTAACAAATGATCCTACATAGATTACATATGATAATTCACCCTTTATTGATCTGGATTAATTTAGAAGTTGCATTGAGAATCCTGGTTAATG
For B3, in the data set with His6-CRP, the binding result was “no binding”.
